Measured values reported in a protein production outcome set (Wang et al. 2014).

Experiment: label from the status in PepcDB records

Sequence	protein production
MKIRFISLASGSSGNCYYLGTEKYGILIDAGIGIRTIKKSLKDINVTMDSIRAVFITHDHADHIKAVGHLGEKLNIPVYTTARVHAGINKSYCMTEKLHGSVRYLEKEEPMLLEDFRIESFEVPHDGTDNVGYCIEIDGKVFSFLTDLGEITPTAARYICKAHYLIIEANYDEEMLRMGPYPTYLKERISSKTGHMSNIDTANFLAENIMEHLRYIWLCHLSKDNNHPELAYKTVEWKLKSKGIIVGKDVQLLALKRNTPSELYEFE	failed
MVRDIEDEIRDEKNPRPLDEDDIALLKTYGLGPYSAPIKKVEKEIKDLAKKINDLCGIKESDTGLAPPSQWDLVSDKQMMQEEQPLQVARCTKIISPNTEDAKYVINVKQIAKFVVGLGDKVSPTDIEEGMRVGVDRNKYQIQIPLPPKIDPSVTMMTVEEKPDVTYNDVGGCKEQIEKMREVVELPMLHPEKFVKLGIDPPKGVLCYGPPGTGKTLLARAVANRTDACFIRVIGSELVQKYVGEGARMVRELFQMARSKKACIVFFDEVDAIGGARFDDGVGGDNEVQRTMLEIVNQLDGFDARGNIKVLMATNRPDTLDPALLRPGRLDRKVEFGLPDLESRTQIFKIHTRTMNCERDIRFELLARLCPNSTGADIRSVCTEAGMYAIRARRKTVTEKDFLDAVNKVIKGYQKFSATPKYMVYN	failed
QIDFQVLHDLRQKFPEVPEVVVSRCMLQNNNNLDACCAVLSQESTRYLYGEGDLNFSDDSGI	not failed
MFDVAVFGSLFLTLFVIMDPPGITPIFLALTAGRPAKVQKRMAFQAVCVAGGVITVFGLLGHQILDYLHVSVPALMIAGGLLLLLIALDLLTGKTDEPKQTKDVNVALVPLGMPLLAGPGAIVSVILAVQKAGSVATQVSVWAAILAIHVVLWVVMRYSLLIIRVIKDGGVVLVTRLAGMMLSAIAVQQIINGVTQVIRGS	failed
MLVSPDTPRFLAARLLLGAWLACGAGAQAQTLLDTSAAIGVQNTLNQIQPGVTQVPGSLSVQFDACKMAPESCKDGQPIGAAPAPATSGQSAQNAQSAQPAPSQVAPAAPTTPTQTTPTPAGEAPATRPVPTVVPLTAEQQQLLQAAQAQFAAGRYPQARNEFEALIVRNYNNPEPHFGLGLALYQLGDLRGATFEFGQFMQFAPQRYEGPYNLGVIATREGRYPDALRLYGEALTLAQSAPPAARQVLLRALATEQGRVKDYVALAATYADLRAADPENVEYIFRHAQALYQAGQVADALPVTYAVLERKPSSLQAALLLADLYVAQGLPDRAVRELSAAAARVLTGTDRATLLLRQSDLLLAQNNLRGALNAASEARQEDRRLPAAIIREAELLAQFGQRPAAVRAYRDALALTPKSAPIQAALAALYLEGNQYPEAAQAAQQALKLTPDASTRARALYVQGVVAYRQGQYTQARTALNSSVLAVPDADSLLWLGLSYYALKDYASAVPVLSESVRLRPTPAARQNLAAALLATARYAEAEALLRGLVTDEVKNAEGWYLLGLSQRAQQRPDDARQSFKTAAGLGSARAKDALK	failed
MKIGIIGVGKMASAIIKGLKQTPHELIISGSSLERSKEIAEQLALPYAMSHQDLIDQVDLVILGIKPQLFETVLKPLHFKQPIISMAAGISLQRLATFVGQDLPLLRIMPNMNAQILQSSTALTGNALVSQELQARVRDLTDSFGSTFDISEKDFDTFTALAGSSPAYIYLFIEALAKAGVKNGIPKAKALEIVTQTVLASASNLKTSSQSPHDFIDAICSPGGTTIAGLMELERLGLTATVSSAIDKTIDKAKSL	not failed
MGFTQNSVYFLNVSEALATPQDKLHTVRLFGTVAADGLTMLDGAPGVRFRLEDKDNTSKTVWVLYKGAVPDTFKPGVEVIIEGGLAPGEDTFKARTLMTKCPLEHHHHHH	not failed
MKFLVGYSNDSSGKDALKLGVALAEMTQGKLIVCHIVAKTWHNIALAKFDEDYDQFLCDEAQKALDDAKLAVPSHIEARYIARTALSISEGLKQTAKELSVDCMVISGARIAIKGQFFSGTVADELLNQLSLPVALAPKGFAKNQGFTSPLTRLSCAVSGSDQSCNLAISAGEWAEIFNVPLRFVTFAVRDRDITPTAAGFDAENMVINEWREQIEAEYAQATQHWESDVPISLEIGDGPTWKESIQSIDWQASELLIVGTTTSGIFKQVLVGKNAEKIIRYASVPRLVLPRSTD	failed
MWYSTVRNPSIALIKQGYHILAEYNLVKEELKNIYAIPSYACGLHWFGVIFVHSGIYAGSVFRFSILLPENFPADISLPTVVFSTEVLHPHICPQNKTLDLAHFLNEWRKDEHHIWHVLRYIQAIFADPEGSICTGQSSSGDLVIMDEVRNMNALNMLAKSRPEYIKRVQEQAILSRNLIYDRPPTEDPHYIIVEPYCAERHLKFMDQLKSPCWKEATSMDCSQPSEYLGHIDSSRQLDEEEANQVEKLHRGRIPEHQREESEVSL	failed
MERKISDEECPVRKSMQIFAGKWTLLIIFQINRRIIRYGELKRAIPGISEKMLIDELKFLCGKGLIKKKQYPEVPPRVEYSLTPLGEKVLPIIDEIAKFGMENL	not failed
MKCKRLNEVIELLQPAWQKEPDLNLLQFLQKLAKESGFDGELADLTDDILIYHLKMRDSAKDAVIPGLQKDYEEDFKTALLRARGVIKE	failed
MNSKSQQQEQQPIVFVTGTDTDVGKTFVSTLLVHKWKAAYWKPVQTGIESDQGDSETLKNFKIAASTWQPPIFTPTYALQKPLSPLQAMEYEPNVDIRLLDFVVPEEWSAENPLVVEGAGGVCVPITRKLEITTDLIKHLIETSGHPVYVVVVARSGLGTLNHTLLTWNHLCDNGLRSHLFGVILNGEPNEGNVQALKKFGVNIMAQVAQCTTAHDQDMELHELPSVESLMTQQDVE	failed
MSLLNIKFTDNAVDYLKRREILDKILILITDDGGGKYSIQGGSCSMGAHFSIIWLDKVDPDYPVKIANEQNVKIYTSDFDKTMLGPNMVMDYNAGSLSLSSDEGLLDGSVDIGNGAALLKANKNVQMGINRQCEGHHHHHH	not failed
MNEKKEQALFEYDAKLSISEAIPMGLQHVVAAVVGIVTPGIMIAKVCQLSPSDTTILIQTSLIFSAVATLIQLFPIFGKVGSRLPVMMGASFAYVPILMAIGADFGIAAIFGSQLVGSILVIIVGLFIKKIRVLFPPLVTGTVILSIGLSLFPVAIKYMAGGAGSADFGSARNWLVALLTFAIVFYFNYFAKGFLKLSAILNGMVIGYLISLALGMVSFEPVQNAKIVQVITPFHFGLDFQLVPIFTLVVMFIVDAVQAIGQFTATTVGAMDRDATDEELSGGIMGSGFTNFIGSLFGSIPVATFGQNVGLVTVTKVINKYVLVFASVILLIAGFVPKVAALLTTIPYAVIGGATISVFASISMTGIRMIASQEMTPRNTGVVGTALAFGIGVTLSTGSLAGFPTWVTTIFGNSEVILTTLVAVLLNVILKPKKRVALE	not failed
MERGRSDMEMINNMANCLILLSKAHQNDTKSRVFACKTCNKEFPSFQALGGHRASHRRSAALEGHAPPSPKRVKPVKHECPICGAEFAVGQALGGHMRKHRGGSGGGGGRSLAPATAPVTMKKSGGGNGKRVLCLDLNLTPLENEDLKLELGRFIF	failed
MRRREGHGTDSEMGQGPVRESQSSDPPALQFRISEYKPLNMAGVEQPPSPELRQEGVTEYEDGGAPAGDGEAGPQQAEDHPQNPPEDPNQDPPEDDSTCQCQACGPHQAAGPDLGSSNDGCPQLFQERSVIVENSSGSTSASELLKPMKKRKRREYQSPSEEESEPEAMEKQEEGKDPEGQPTASTPESEEWSSSQPATGEKKECWSWESYLEEQKAITAPVSLFQDSQAVTHNKNGFKLGMKLEGIDPQHPSMYFILTVAEVCGYRLRLHFDGYSECHDFWVNANSPDIHPAGWFEKTGHKLQPPKGYKEEEFSWSQYLRSTRAQAAPKHLFVSQSHSPPPLGFQVGMKLEAVDRMNPSLVCVASVTDVVDSRFLVHFDNWDDTYDYWCDPSSPYIHPVGWCQKQGKPLTPPQDYPDPDNFCWEKYLEETGASAVPTWAFKVRPPHSFLVNMKLEAVDRRNPALIRVASVEDVEDHRIKIHFDGWSHGYDFWIDADHPDIHPAGWCSKTGHPLQPPLGPREPSSASPGGCPPLSYRSLPHTRTSKYSFHHRKCPTPGCDGSGHVTGKFTAHHCLSGCPLAERNQSRLKAELSDSEASARKKNLSGFSPRKKPRHHGRIGRPPKYRKIPQEDFQTLTPDVVHQSLFMSALSAHPDRSLSVCWEQHCKLLPGVAGISASTVAKWTIDEVFGFVQTLTGCEDQARLFKDEARIVRVTHVSGKTLVWTVAQLGDLVCSDHLQEGKGILETGVHSLLCSLPTHLLAKLSFASDSQY	failed
MALKLGVIGTGAIGQDHIRRCSKTLVGSQVVAVTDINLEQAANVVRDLGIGAEVYADGHALIAAPDVEAVLVCSWGPSHEEYVLAAIAAGKPVFCEKPLAVTAEGCRHIVEAEIASGRRLVQVGFMRPYDQGYRALKSVIDSGQIGEPLMLHCAHRNPRVGENYKTDMAITDTLIHELNVLRWLLNDDYVSVQVVFPRKSGKALAHMKDPQIVMLETARGTRIDVEVFVNCQYGYDIQCEVVGESGIARLPEPSQVQLRREAKLSNAILMDWKDRFIAAYDVELQDFIDGVKAGTIYGPSAWDGYAAAVAADACVLAQNNGAVVPITLAMRPAFYA	failed
MKIEAASEQHLSVYRRYFRACRDEDFEYYRGLPDDADGWLLKVVQHADGEALPEGWVPCQTWFLLSDDGEIAGAARLREGETAVIQDVIGHIGFEVLPQWRGHGYGRVLLQYVQAMAPAPACGNWVLVCDADSPASVRTIEACGGQRLEDMPQPDGRV	failed
MGHHHHHHSHMKLVTRSCDPGEKLDSKIGVLIGKGLHEFDSLKDPEVNEFRRKMRKFSEEKILSLVGLSWMDWLKQTYPPEHEPSIPENLEDKLYGGKLIVAVHFENCQDVFSFQVSPNMNPIKVNELAIQKRLTIHGKEDEVSPYDYVLQVSGRVEYVFGDHPLIQFQYIRNCVMNRALPHFILVECCKIKK	failed
MAEDTYEEECDYLFKAVLIGDSAVGKSNLLSRFSKDEFRFDSKPTIGVEFAYRNVHVGDKIIKAQIWDTAGQERFRAITSSYYRGALGALLIYDITRRTTFDNIKKWLFELRDFANPETVVVLVGNKSDLRQSREVEEDEGKTLAESEGLYFLETSALENVNVEEAFLVMIGRIHEVVTQRIASENKSNGAATPHINGNGNGTVLPVGKEIVNIHEVTATQPLLSSSSNCCFK	failed
MILLIMNTDDFQFFIRVADCGSLSKAAQEANISVSVASQRIQRLESTLKLRLFYRTTRKITLTDEGRKLLDFGRYWLDDFITLKDTLTARDKPLTGNLRVTTSATFGIKILTKVIANFALLHPTLNIYLDLNDQNIDLIEHGMDLAIRIGKLNDSSLVAKPLMTNHRLICAAPSYLNQYGMPHSIEDLQQHRCILQQHQNGLTDHWQLIDQKRTVVDVHLKAYFTTNSGEAIRQAALQGLGISNHSRWHVADDLEQGHLIELLPEYQIEPTTIYAVFPNRQFRQPKTELFLSYLQNYFKHEYPWNIRKN	failed
MRTYTAQPDTTRPDTLTVTTYNIGYLSGMRNNEPVVRPDSLFHANMDQAAGYLRAAAPDIVALQEIDFGGARAAHVHQLDTLAARLGYPGAAQAVNWDERYLPFPYGRPAVHFGRTLSGQAVLSRFPVRRHVRRTLPRPPQPFFRDAFYLDRLAQVGVVDVDGRPLAVINVHLEAFDVGTRETQARVVNDLYRRLADRGIPTLLLGDFNSSLSSGEEGGQAGAEDATMQHILAGTDLRSAVNTASADTASATYPADAPARTIDHIFYPPQFFEAVDTQRWCGRPAPPSDHCAVTAALRLPSRAKWPSHEALPPLEDSPTE	failed
MDDSAGHSGEDNALMEKHFMAAVVVTFQSGSTIDVCLARLRAAKDVAEICVVDNGSHDETLNIVQCHALADPRVRFVANLDNPGFAAACNQGAADVSAPWLVFVNPDLMVEPEILAQLRAYAEVYVPALLGVEQVDEHGYPDPAVRRRDPDFAAMLRNPRRGTQLAIPADPTQSLQLVPALSGALMLMSRLLFERLGGWDVGYRLHAEDLDLCRRARQVGATVAVVNTLQVVHLRGVSSRSRPFFVEWHKHCGLWRYFCKFEAPQRGLPVRLGVWLAIWSHAFFQCLGVWLRRR	failed
